Results on 1 protein are retold here after US20220305098.

This series addresses T1, S5a protein (Ube3a target protein), P55036.
T1 chain: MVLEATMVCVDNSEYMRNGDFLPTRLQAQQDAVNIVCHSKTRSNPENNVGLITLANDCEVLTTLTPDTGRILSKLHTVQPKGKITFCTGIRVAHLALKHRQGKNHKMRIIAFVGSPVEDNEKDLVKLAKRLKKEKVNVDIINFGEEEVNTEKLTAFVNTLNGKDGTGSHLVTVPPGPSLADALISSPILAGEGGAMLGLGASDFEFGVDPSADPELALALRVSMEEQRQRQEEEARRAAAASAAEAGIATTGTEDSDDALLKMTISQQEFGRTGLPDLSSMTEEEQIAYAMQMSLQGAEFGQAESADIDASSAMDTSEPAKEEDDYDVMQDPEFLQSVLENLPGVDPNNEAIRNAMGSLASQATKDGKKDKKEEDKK

B1: Human Ube3a isoform 1 with 8xN-glycan sites and IL2 secretion signal (expressed from the hAS8 lentiviral vector) (protein)
chain: MKRAAAKHLIERYYHQLTEGCGNEACTNEFCASCPTFLRMDNNTAAIKALELYKINAKLCDPHPSKKGASSAYLENSTGAPNNTCSEIKMNKKGARIDFKDVTYLTEEKVYEILELCREREDYSPLIRVIGRVFSSAEALVQSFRKVKQHTKEELKSLQAKDEDKDEDEKEKAACSAAAMEEDSEASSSRIGDSSQGDNNTQKLGPDDVSVDIDAIRRVYTRLLSNEKIETAFLNALVYLSPNVECDLTYHNVYSRDPNYLNLFIIVMENRNLHSPEYLEMALPLFCKAMSKLPLAAQGKLIRLWSKYNADQIRRMMETFQQLITYKVISNEFNSTNLVNDDDAIVAASKCLKMVYYANVVGGEVDTNHNEEDDEEPIPESSELTLQELLGEERRNKKGPRVDPLETELGVKTLDCRKPLIPFEEFINEPLNEVLEMDKDYTFFKVETENKFSFMTCPFILNAVTKNLGLYYDNRIRMYSERRITVLYSLVQGQQLNPYLRLKVRRDHIIDDALVRLEMIAMENPADLKKQLYVEFEGEQGVDEGGVSKEFFQLVVEEIFNPDIGMFTYDNSTKLFWFNPSSFETEGQFTLIGIVLGLAIYNNTILDVHFPMVVYRKLMGKKGTFRDLGDSHPVLYQSLKDLLEYEGNVEDDMMITFQISQTDLFGNPMMYDLKENGDKIPITNENRKEFVNLYSDYILNKSVEKQFKAFRRGFHMVTNESPLKYLFRPEEIELLICGSRNLDFQALEETTEYDGGYTRDSVLIREFWEIVHSFTDEQKRLFLQNNTGTDRAPVGGLGKLKMIIAKNGPDTERLPTSHTCFNVLLLPEYSSKEKLKERLLKAITYAKGFGML
Turning to B1, the “ubiquitination activity of the Ube3a S5a target protein (blot, bands of ubiquitinated S5A)” value was “different mutated forms of Ube3a ubiquitinate their S5A target”.
